The values below come from publication PMC4909763 (Frontiers in Plant Science, 2016).

By stoichiometry N is commonly meant the number of molecules, sites or subunits per partner or assembly.

This data set deals with the molecule itself. The experiment in a line: native gel or EMSA. (In EMSA bound probe runs differently from free probe, usually more slowly.)

B1: ER-retained plant-made recombinant human butyrylcholinesterase (prBChE-ER) (enzyme)
chain: EDDIIIATKNGKVRGMNLTVFGGTVTAFLGIPYAQPPLGRLRFKKPQSLTKWSDIWNATKYANSCCQNIDQSFPGFHGSEMWNPNTDLSEDCLYLNVWIPAPKPKNATVLIWIYGGGFQTGTSSLHVYDGKFLARVERVIVVSMNYRVGALGFLALPGNPEAPGNMGLFDQQLALQWVQKNIAAFGGNPKSVTLFGESAGAASVSLHLLSPGSHSLFTRAILQSGSFNAPWAVTSLYEARNRTLNLAKLTGCSRENETEIIKCLRNKDPQEILLNEAFVVPYGTPLSVNFGPTVDGDFLTDMPDILLELGQFKKTQILVGVNKDEGTAFLVYGAPGFSKDNNSIITRKEFQEGLKIFFPGVSEFGKESILFHYTDWVDDQRPENYREALGDVVGDYNFICPALEFTKKFSEWGNNAFFYYFEHRSSKLPWPEWMGVMHGYEIEFVFGLPLERRDNYTKAEEILSRSIVKRWANFAKYGNPNETQNNSTSWPVFKSTEQKYLTLNTESTRIMTKLRAQQCRFWTSFFPKVLEMTGNIDEAEWEWKAGFHRWNNYMMDWKNQFNDYTSKKESCVGLKDEL
notes: also called prBChE+KDEL; rBChE+KDEL
As to B1, the “stoichiometry N” value turned out to be 4.

B2: plant-made recombinant human butyrylcholinesterase, apoplast-targeted (prBChE) (enzyme, UniProt P06276 29-602, looked up)
chain: EDDIIIATKNGKVRGMNLTVFGGTVTAFLGIPYAQPPLGRLRFKKPQSLTKWSDIWNATKYANSCCQNIDQSFPGFHGSEMWNPNTDLSEDCLYLNVWIPAPKPKNATVLIWIYGGGFQTGTSSLHVYDGKFLARVERVIVVSMNYRVGALGFLALPGNPEAPGNMGLFDQQLALQWVQKNIAAFGGNPKSVTLFGESAGAASVSLHLLSPGSHSLFTRAILQSGSFNAPWAVTSLYEARNRTLNLAKLTGCSRENETEIIKCLRNKDPQEILLNEAFVVPYGTPLSVNFGPTVDGDFLTDMPDILLELGQFKKTQILVGVNKDEGTAFLVYGAPGFSKDNNSIITRKEFQEGLKIFFPGVSEFGKESILFHYTDWVDDQRPENYREALGDVVGDYNFICPALEFTKKFSEWGNNAFFYYFEHRSSKLPWPEWMGVMHGYEIEFVFGLPLERRDNYTKAEEILSRSIVKRWANFAKYGNPNETQNNSTSWPVFKSTEQKYLTLNTESTRIMTKLRAQQCRFWTSFFPKVLEMTGNIDEAEWEWKAGFHRWNNYMMDWKNQFNDYTSKKESCVGL
notes: also called prBuChE; prBChE-AWF
In the case of B2, the “stoichiometry N” value turned out to be 4.
